Reference: publication PMC7144518, “Tumor-derived soluble CD155 inhibits DNAM-1–mediated antitumor activity of natural killer cells” (The Journal of Experimental Medicine, 2020)
Each block holds one binder with its values, some of them ahead of it.

How the values were obtained:
[1] = molecular target: T1, extracellular portion of mouse CD155 tagged with His protein at the C terminus (mouse); test: BLI
T1 chain: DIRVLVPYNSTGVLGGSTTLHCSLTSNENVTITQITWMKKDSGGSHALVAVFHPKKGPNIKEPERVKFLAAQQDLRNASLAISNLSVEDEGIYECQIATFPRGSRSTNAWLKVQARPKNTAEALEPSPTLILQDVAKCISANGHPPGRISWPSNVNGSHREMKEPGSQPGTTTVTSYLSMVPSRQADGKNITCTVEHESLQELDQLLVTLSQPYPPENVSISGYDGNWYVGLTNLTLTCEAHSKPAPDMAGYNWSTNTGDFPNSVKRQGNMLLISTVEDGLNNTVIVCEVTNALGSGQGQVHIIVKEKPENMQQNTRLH

[2] = molecular target: T2, extracellular portion of human CD155 tagged with His protein at the C terminus (human, UniProt P15151 21-343); test: BLI; His-tagged recombinant CD155 (20 µg/ml) loaded on a Ni-NTA biosensor; Fc fusion proteins as analytes at three concentrations; kinetics buffer; association 120 s, dissociation 120 s; global mode of BLItz; conditions: both partners purified
T2 construct: human CD155 (poliovirus receptor, nectin-like protein-5), extracellular portion; R&D Systems"); also called sCD155-His; human His-tagged sCD155; source: bought: R&D Systems; not shown: His, C-terminal, kept
T2 sequence (looked up): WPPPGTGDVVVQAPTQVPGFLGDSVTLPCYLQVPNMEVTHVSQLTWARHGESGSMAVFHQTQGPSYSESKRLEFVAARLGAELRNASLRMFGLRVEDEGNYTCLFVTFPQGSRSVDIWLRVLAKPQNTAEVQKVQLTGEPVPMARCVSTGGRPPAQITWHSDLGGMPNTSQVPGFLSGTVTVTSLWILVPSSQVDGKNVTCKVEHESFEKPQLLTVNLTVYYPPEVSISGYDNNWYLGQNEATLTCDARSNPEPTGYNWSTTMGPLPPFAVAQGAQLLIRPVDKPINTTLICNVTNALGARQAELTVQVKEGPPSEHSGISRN

[3] = molecular target: T3, extracellular portion of human CD155 tagged with His protein at the C terminus (human, UniProt P15151 21-343); test: BLI
T3 chain: T2 sequence (looked up)

Kd [1]: 22.4 nM
B1: mouse TIGIT Fc fusion protein (Fc fusion)
chain: TIDTKRNISAEEGGSVILQCHFSSDTAEVTQVDWKQQDQLLAIYSVDLGWHVASVFSDRVVPGPSLGLTFQSLTMNDTGEYFCTYHTYPGGIYKGRIFLKVQESSDDRNGLAQFQTAPLG

binding result [2]: binds
Kd [3]: 15.2 nM
B2: human TIGIT Fc fusion protein (Fc fusion, UniProt Q495A1 22-141, looked up)
chain: MMTGTIETTGNISAEKGGSIILQCHLSSTTAQVTQVNWEQQDQLLAICNADLGWHISPSFKDRVAPGPGLGLTLQSLTVNDTGEYFCIYHTYPDGTYTGRIFLEVLESSVAEHGARFQIP
notes: human TIGIT, extracellular portion; source: bought: R&D Systems

Kd [1]: 8.83 nM
B3: mouse DNAM-1 Fc fusion protein (Fc fusion)
chain: EETLWDTTVRLSETMTLECVYPLTHNLTQVEWTKNTGTKTVSIAVYNPNHNMHIESNYLHRVHFLNSTVGFRNMSLSFYNASEADIGIYSCLFHAFPNGPWEKKIKVVWSDSFEIAAPSDSYLSAEPGQDVTLTCQLPRTWPVQQVIWEKVQPHQVDILASCNLSQETRYTSKYLRQTRSNCSQGSMKSILIIPNAMAADSGLYRCRSEAITGKNKSFVIRLIITDGGTNKHFILP

Kd [1]: 29.7 nM
B4: mouse CD96 Fc fusion protein (Fc fusion)
chain: VWEELFNVGDDVYALPGSDINLTCQTKEKNFLVQMQWSKVTDKNDMIALYHPQYGLYCGQEHACESQVAATETEKGVTNWTLYLRNISSALGGKYECIFTLYPEGIKTTVYNLIVEPYTQDEHNYTIEIETNRTLEIPCFQNTSSEIPPRFTFSWLVEKDGVEEVLFTHHHHVNNSTSFKGRIRLGGDYRLHLSPVQIQDDGRTFSCHLTVNPLKAWKMSTTVKVFAKPEILMTVENSTMDVLGERVFTCLLKNVFPKANITWFIDGRFLQGNEEGIYITNEEKNCSSGFWELKSVLTRMHSGPSQSNNMTAWCMALSPGPRNKMWNTSSQPITVSFDSVIAPTKHLPTVTGSTLGTQPFSDAGVSPTGYLATPSVTIVDENGLTPDATPQTSNSSMTTKDGNYLEASSGTDAKNSSRAAASSKSGSWPFPFTSPPEWHSLPGTSTGPQEPDSPVSWIPSEVHTSAPLDASLAPHDTIISTTTEFPNVLTTANGTTKIDHGPITSIIVNQPSDGM

binding result [2]: binds
Kd [3]: 3.56 nM
B5: human DNAM-1 Fc fusion protein (Fc fusion, UniProt Q15762 19-254, looked up)
chain: EEVLWHTSVPFAENMSLECVYPSMGILTQVEWFKIGTQQDSIAIFSPTHGMVIRKPYAERVYFLNSTMASNNMTLFFRNASEDDVGYYSCSLYTYPQGTWQKVIQVVQSDSFEAAVPSNSHIVSEPGKNVTLTCQPQMTWPVQAVRWEKIQPRQIDLLTYCNLVHGRNFTSKFPRQIVSNCSHGRWSVIVIPDVTVSDSGLYRCYLQASAGENETFVMRLTVAEGKTDNQYTLFVA
notes: human DNAM-1 (DNAX accessory molecule 1, CD226), extracellular portion; source: bought: R&D Systems
